Assay results: publication PMC8265641, “Enterococcal PrgU Provides Additional Regulation of Pheromone-Inducible Conjugative Plasmids”

What was measured:
[1] = molecular target: PrgU-His (PrgU with C-terminal His tag) (Enterococcus faecalis (plasmid pCF10)); experiment: SEC-MALS; 200 ul PrgU-His at 1 mg/ml on Superdex 200 10/300 GL Increase, 20 mM potassium phosphate pH 7.0, 150 mM NaCl; self-association, dimer
[2] = molecular target: PrgU-His (PrgU with C-terminal His tag) (Enterococcus faecalis (plasmid pCF10)); experiment: GEMMA (gas-phase electrophoretic mobility macromolecule analysis); main SEC peak of PrgU-His diluted to 0.01 mg/ml in 20 mM ammonium acetate, pH 7.8; self-association, dimer and monomer
PrgU-His = PrgU-His (Enterococcus faecalis plasmid pCF10, UniProt Q5G3Q2 1-118); experiment: MST; MST: 20 mM KPi pH 7.0, 150 mM NaCl, 0.05% Tween 20, 0.1 U/ul RNase inhibitor, ~25 C; EMSA: 20 min at ~25 C, 1% agarose run at 4 C, buffer as previously described (not given); settings: protein: recombinant, tags: C-terminal 10xHis with 3C protease site

Question: With “PrgU-His (PrgU with C-terminal His tag) (natural protein)” as the molecule, how does the stoichiometry N [1] read?
Answer: 2

Question: And the stoichiometry N [2]?
Answer: 2

B1: IRS1 ssDNA (ssDNA)
DNA: GGAGCAGCGGGGAATGTATACAGTTCATGTATATGTTCCCCGCTTTTTTTG
Question: Does B1 bind (PrgU-His)?
Answer: no binding

B2: IRS1 dsDNA (dsDNA)
DNA 1: GGAGCAGCGGGGAATGTATACAGTTCATGTATATGTTCCCCGCTTTTTTTG
DNA 2: CAAAAAAAGCGGGGAACATATACATGAACTGTATACATTCCCCGCTGCTCC
Question: Does B2 bind (PrgU-His; blunt)?
Answer: no binding

Question: Does ACUCGUAAGAGCCGUGCAAACAACGUGUUGCAUGGCUCUUUUUCUAC (structured_RNA) [IRS2 RNA] bind (PrgU-His; hairpin)?
Answer: no binding

Question: Does ACTCGTAAGAGCCGTGCAAACAACGTGTTGCATGGCTCTTTTTCTAC (ssDNA) [IRS2 ssDNA] bind (PrgU-His)?
Answer: no binding

B3: IRS2 dsDNA (dsDNA)
DNA 1: ACTCGTAAGAGCCGTGCAAACAACGTGTTGCATGGCTCTTTTTCTAC
DNA 2: GTAGAAAAAGAGCCATGCAACACGTTGTTTGCACGGCTCTTACGAGT
Question: Does B3 bind (PrgU-His; blunt)?
Answer: no binding

B4: IRS1 RNA (structured_RNA)
RNA: GGAGCAGCGGGGAAUGUAUACAGUUCAUGUAUAUGUUCCCCGCUUUUUUUG
Question: Does B4 bind (PrgU-His; hairpin)?
Answer: no binding
